The labels stand for the following.
B1: VH SEQ ID NO 642 / VL SEQ ID NO 382 (antibody, IgG4, V domains shown)
VH: QVQLQESGPGLVKPSQTLSLTCTVSGYSISSDSAWSWIRQPPGKGLEWIGYIYYSGSTNYNPSLKSRVTISVDTSKNQFSLKLSSVTAADTAVYYCARSVNYYGNSFAVGYWGQGTSVTVSS
VL: EIVLTQSPATLSLSPGERATLSCRASQGLSDYLHWYQQKPGEAPRLLIKYASQPATGIPARFSGSGSGTDFTLTISSLEPEDFAVYYCQNGHSFPLTFGQGTKLEIK
notes: humanized 11F2; IgG4 S228P/kappa
B2: VH SEQ ID NO 642 / VL SEQ ID NO 478 (antibody, IgG4, V domains shown)
VH: QVQLQESGPGLVKPSQTLSLTCTVSGYSISSDSAWSWIRQPPGKGLEWIGYIYYSGSTNYNPSLKSRVTISVDTSKNQFSLKLSSVTAADTAVYYCARSVNYYGNSFAVGYWGQGTSVTVSS
VL: EIVLTQSPATLSLSPGERATLSCRASQGVSDYLHWYQQKPGQAPRLLIKYASQPATGIPARFSGSGSGTDFTLTISSLEPEDFAVYYCQQGHSFPLTFGQGTKLEIK
notes: as for B1
B3: VH SEQ ID NO 642 / VL SEQ ID NO 454 (antibody, IgG4, V domains shown)
VH: QVQLQESGPGLVKPSQTLSLTCTVSGYSISSDSAWSWIRQPPGKGLEWIGYIYYSGSTNYNPSLKSRVTISVDTSKNQFSLKLSSVTAADTAVYYCARSVNYYGNSFAVGYWGQGTSVTVSS
VL: EIVLTQSPATLSLSPGERATLSCRASQGVSDYLHWYQQKPGEAPRLLIKYASQPATGIPARFSGSGSGTDFTLTISSLEPEDFAVYYCQNGHSFPLTFGQGTKLEIK
notes: as for B1
B4: VH SEQ ID NO 650 / VL SEQ ID NO 318 (antibody, IgG4, V domains shown)
VH: QVQLQESGPGLVKPSQTLSLTCTVSGYSISSDSAWSWIRQPPGKKLEWIGYIQYSGSTNYNPSLKSRVTISRDTSKNQFSLKLSSVTAADTAVYYCARSVNYYGNSFAVGPWGQGTLVTVSS
VL: EIVLTQSPATLSLSPGERATLSCRASQGISDYLHWYQQKPGEAPRLLIKYTSQPATGIPARFSGSGSGTDFTLTISSLEPEDFAVYYCQNGHSFPLTFGQGTKLEIK
notes: as for B1
B5: VH SEQ ID NO 650 / VL SEQ ID NO 310 (antibody, IgG4, V domains shown)
VH: QVQLQESGPGLVKPSQTLSLTCTVSGYSISSDSAWSWIRQPPGKKLEWIGYIQYSGSTNYNPSLKSRVTISRDTSKNQFSLKLSSVTAADTAVYYCARSVNYYGNSFAVGPWGQGTLVTVSS
VL: EIVLTQSPATLSLSPGERATLSCRASQGISDYLAWYQQKPGQAPRLLIKYASQPATGIPARFSGSGSGTDFTLTISSLEPEDFAVYYCQNGHSFPLTFGQGTKLEIK
notes: as for B1
B6: VH SEQ ID NO 642 / VL SEQ ID NO 430 (antibody, IgG4, V domains shown)
VH: QVQLQESGPGLVKPSQTLSLTCTVSGYSISSDSAWSWIRQPPGKGLEWIGYIYYSGSTNYNPSLKSRVTISVDTSKNQFSLKLSSVTAADTAVYYCARSVNYYGNSFAVGYWGQGTSVTVSS
VL: EIVLTQSPATLSLSPGERATLSCRASQGVSDYLAWYQQKPGQAPRLLIKYASQPATGIPARFSGSGSGTDFTLTISSLEPEDFGVYYCQNGHSFPLTFGQGTKLEIK
notes: as for B1
B7: VH SEQ ID NO 650 / VL SEQ ID NO 334 (antibody, IgG4, V domains shown)
VH: QVQLQESGPGLVKPSQTLSLTCTVSGYSISSDSAWSWIRQPPGKKLEWIGYIQYSGSTNYNPSLKSRVTISRDTSKNQFSLKLSSVTAADTAVYYCARSVNYYGNSFAVGPWGQGTLVTVSS
VL: EIVLTQSPATLSLSPGERATLSCRASQGISDYLHWYQQKPGQAPRLLIKYASQPATGIPARFSGSGSGTDFTLTISSLEPEDFAVYYCQNGHSFPLTFGQGTKLEIK
notes: as for B1
B8: VH SEQ ID NO 642 / VL SEQ ID NO 438 (antibody, IgG4, V domains shown)
VH: QVQLQESGPGLVKPSQTLSLTCTVSGYSISSDSAWSWIRQPPGKGLEWIGYIYYSGSTNYNPSLKSRVTISVDTSKNQFSLKLSSVTAADTAVYYCARSVNYYGNSFAVGYWGQGTSVTVSS
VL: EIVLTQSPATLSLSPGERATLSCRASQGVSDYLAWYQQKPGQAPRLLIKYASQPATGIPARFSGSGSGTDFTLTISSLEPEDVAVYYCQNGHSFPLTFGQGTKLEIK
notes: as for B1
B9: VH SEQ ID NO 642 / VL SEQ ID NO 494 (antibody, IgG4, V domains shown)
VH: QVQLQESGPGLVKPSQTLSLTCTVSGYSISSDSAWSWIRQPPGKGLEWIGYIYYSGSTNYNPSLKSRVTISVDTSKNQFSLKLSSVTAADTAVYYCARSVNYYGNSFAVGYWGQGTSVTVSS
VL: EIVLTQSPATLSLSPGERATLSCRASQGVSDYLHWYQQKPGQAPRLLIKYASQPATGIPARFSGSGSGTDFTLTISSLEPEDVAVYYCQNGHSFPLTFGQGTKLEIK
notes: as for B1
B10: VH SEQ ID NO 650 / VL SEQ ID NO 382 (antibody, IgG4, V domains shown)
VH: QVQLQESGPGLVKPSQTLSLTCTVSGYSISSDSAWSWIRQPPGKKLEWIGYIQYSGSTNYNPSLKSRVTISRDTSKNQFSLKLSSVTAADTAVYYCARSVNYYGNSFAVGPWGQGTLVTVSS
VL: EIVLTQSPATLSLSPGERATLSCRASQGLSDYLHWYQQKPGEAPRLLIKYASQPATGIPARFSGSGSGTDFTLTISSLEPEDFAVYYCQNGHSFPLTFGQGTKLEIK
notes: as for B1
B11: VH SEQ ID NO 642 / VL SEQ ID NO 462 (antibody, IgG4, V domains shown)
VH: QVQLQESGPGLVKPSQTLSLTCTVSGYSISSDSAWSWIRQPPGKGLEWIGYIYYSGSTNYNPSLKSRVTISVDTSKNQFSLKLSSVTAADTAVYYCARSVNYYGNSFAVGYWGQGTSVTVSS
VL: EIVLTQSPATLSLSPGERATLSCRASQGVSDYLHWYQQKPGQAPRLLIKYASQPATGIPARFSGSGSGTDFTLTISSLEPEDFAVYYCQNGHSFPLTFGAGTKLEIK
notes: as for B1
B12: VH SEQ ID NO 650 / VL SEQ ID NO 366 (antibody, IgG4, V domains shown)
VH: QVQLQESGPGLVKPSQTLSLTCTVSGYSISSDSAWSWIRQPPGKKLEWIGYIQYSGSTNYNPSLKSRVTISRDTSKNQFSLKLSSVTAADTAVYYCARSVNYYGNSFAVGPWGQGTLVTVSS
VL: EIVLTQSPATLSLSPGERATLSCRASQGLSDYLAWYQQKPGEAPRLLIKYASQPATGIPARFSGSGSGTDFTLTISSLEPEDFAVYYCQNGHSFPLTFGQGTKLEIK
notes: as for B1
B13: VH SEQ ID NO 642 / VL SEQ ID NO 502 (antibody, IgG4, V domains shown)
VH: QVQLQESGPGLVKPSQTLSLTCTVSGYSISSDSAWSWIRQPPGKGLEWIGYIYYSGSTNYNPSLKSRVTISVDTSKNQFSLKLSSVTAADTAVYYCARSVNYYGNSFAVGYWGQGTSVTVSS
VL: EIVLTQSPATLSLSPGERATLSCRASQGVSDYLHWYQQKPGQAPRLLIKYTSQPATGIPARFSGSGSGTDFTLTISSLEPEDFAVYYCQNGHSFPLTFGQGTKLEIK
notes: as for B1
B14: VH SEQ ID NO 650 / VL SEQ ID NO 358 (antibody, IgG4, V domains shown)
VH: QVQLQESGPGLVKPSQTLSLTCTVSGYSISSDSAWSWIRQPPGKKLEWIGYIQYSGSTNYNPSLKSRVTISRDTSKNQFSLKLSSVTAADTAVYYCARSVNYYGNSFAVGPWGQGTLVTVSS
VL: EIVLTQSPATLSLSPGERATLSCRASQGISDYLHWYQQKPGQAPRLLIKYTSQPATGIPARFSGSGSGTDFTLTISSLEPEDFAVYYCQNGHSFPLTFGQGTKLEIK
notes: as for B1
B15: VH SEQ ID NO 650 / VL SEQ ID NO 374 (antibody, IgG4, V domains shown)
VH: QVQLQESGPGLVKPSQTLSLTCTVSGYSISSDSAWSWIRQPPGKKLEWIGYIQYSGSTNYNPSLKSRVTISRDTSKNQFSLKLSSVTAADTAVYYCARSVNYYGNSFAVGPWGQGTLVTVSS
VL: EIVLTQSPATLSLSPGERATLSCRASQGLSDYLAWYQQKPGQAPRLLIKYTSQPATGIPARFSGSGSGTDFTLTISSLEPEDFAVYYCQNGHSFPLTFGQGTKLEIK
notes: as for B1
B16: VH SEQ ID NO 642 / VL SEQ ID NO 486 (antibody, IgG4, V domains shown)
VH: QVQLQESGPGLVKPSQTLSLTCTVSGYSISSDSAWSWIRQPPGKGLEWIGYIYYSGSTNYNPSLKSRVTISVDTSKNQFSLKLSSVTAADTAVYYCARSVNYYGNSFAVGYWGQGTSVTVSS
VL: EIVLTQSPATLSLSPGERATLSCRASQGVSDYLHWYQQKPGQAPRLLIKYASQPATGIPARFSGSGSGTDFTLTISSLEPEDFGVYYCQNGHSFPLTFGQGTKLEIK
notes: as for B1
B17: VH SEQ ID NO 650 / VL SEQ ID NO 350 (antibody, IgG4, V domains shown)
VH: QVQLQESGPGLVKPSQTLSLTCTVSGYSISSDSAWSWIRQPPGKKLEWIGYIQYSGSTNYNPSLKSRVTISRDTSKNQFSLKLSSVTAADTAVYYCARSVNYYGNSFAVGPWGQGTLVTVSS
VL: EIVLTQSPATLSLSPGERATLSCRASQGISDYLHWYQQKPGQAPRLLIKYTSQPATGIPARFSGSGSGTDFTLTISSLEPEDFAVYYCQNGHSFPLTFGAGTKLELK
notes: as for B1
B18: VH SEQ ID NO 642 / VL SEQ ID NO 470 (antibody, IgG4, V domains shown)
VH: QVQLQESGPGLVKPSQTLSLTCTVSGYSISSDSAWSWIRQPPGKGLEWIGYIYYSGSTNYNPSLKSRVTISVDTSKNQFSLKLSSVTAADTAVYYCARSVNYYGNSFAVGYWGQGTSVTVSS
VL: EIVLTQSPATLSLSPGERATLSCRASQGVSDYLHWYQQKPGQAPRLLIKYASQPATGIPARFSGSGSGTDFTLTISSLEPEDFAVYYCQNGHSFPLTFGQGTKLEIK
notes: as for B1
B19: VH SEQ ID NO 650 / VL SEQ ID NO 342 (antibody, IgG4, V domains shown)
VH: QVQLQESGPGLVKPSQTLSLTCTVSGYSISSDSAWSWIRQPPGKKLEWIGYIQYSGSTNYNPSLKSRVTISRDTSKNQFSLKLSSVTAADTAVYYCARSVNYYGNSFAVGPWGQGTLVTVSS
VL: EIVLTQSPATLSLSPGERATLSCRASQGISDYLHWYQQKPGQAPRLLIKYTSQPATGIPARFSGSGSGRDFTLTISSLEPEDFAVYYCQNGHSFPLTFGAGTKLELK
notes: as for B1
B20: VH SEQ ID NO 650 / VL SEQ ID NO 326 (antibody, IgG4, V domains shown)
VH: QVQLQESGPGLVKPSQTLSLTCTVSGYSISSDSAWSWIRQPPGKKLEWIGYIQYSGSTNYNPSLKSRVTISRDTSKNQFSLKLSSVTAADTAVYYCARSVNYYGNSFAVGPWGQGTLVTVSS
VL: EIVLTQSPATLSLSPGERATLSCRASQGISDYLHWYQQKPGEAPRLLIKYTSQPATGIPARFSGSGSGTDFTLTISSLEPEDFGVYYCQNGHSFPLTFGAGTKLELK
notes: as for B1

By Kd is commonly meant the constant that tells how readily two partners part at equilibrium.

This experiment has as its target T1, recombinant human activated Factor VII (FVIIa) (human, UniProt P08709 61-212; P08709 213-466, ten glutamate residues of the Gla domain may be gamma-carboxylated).
T1 construct: chains tethered by a disulfide bond; also called Factor VIIa; rFVIIa
T1 sequence 1: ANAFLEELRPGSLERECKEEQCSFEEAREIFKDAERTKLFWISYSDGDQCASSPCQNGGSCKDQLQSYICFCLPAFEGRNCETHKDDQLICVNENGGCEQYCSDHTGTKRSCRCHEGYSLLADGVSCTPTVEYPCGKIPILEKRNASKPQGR
T1 sequence 2: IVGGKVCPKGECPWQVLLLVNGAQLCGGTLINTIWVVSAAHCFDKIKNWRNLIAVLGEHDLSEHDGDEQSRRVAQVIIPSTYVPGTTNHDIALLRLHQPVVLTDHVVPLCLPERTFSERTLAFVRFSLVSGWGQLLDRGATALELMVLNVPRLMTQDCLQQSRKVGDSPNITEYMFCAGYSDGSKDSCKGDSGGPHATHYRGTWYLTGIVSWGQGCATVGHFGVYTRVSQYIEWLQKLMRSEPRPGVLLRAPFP
Kind of experiment: BLI (Fortebio). Background: In BLI a coated tip is dipped into the sample, and binding shifts an interference pattern.
On to B1, for which the Kd was found to be 600 nM.

For B2, the Kd came to 11 nM.

Turning to B3, the Kd turned out to be 25 nM.

For B4, the Kd was 1.2 nM.

Regarding B5, the dissociation constant Kd stood at 16 nM.

B6: the Kd stood at 540 nM.

With B7, the Kd stood at 1.5 nM.

Consider B8, for which the dissociation constant Kd came to 33 nM.

On to B9, for which the Kd is 10 nM.

Consider B10, for which the Kd was found to be 1.9 nM.

For B11, the Kd is 52 nM.

Regarding B12, the Kd stood at 35 nM.

In the case of B13, the Kd turned out to be 4.6 nM.

As for B14, the Kd was 1.1 nM.

As for B15, the Kd came to 46 nM.

Regarding B16, the Kd was 7.7 nM.

B17: the Kd was determined as 0.99 nM.

On to B18, for which the Kd is 47 nM.

In the case of B19, the Kd is 1.6 nM.

As for B20, the Kd was 1.1 nM.

The values are drawn from patent US20220064329A1 (Novo Nordisk, published 2022).
